{"source": "the supplement of paper PMC12067230", "parents": {"B1": {"name": "E-31-W; numbered along this chain (parent)", "chain": "EASNCFAIRHFENKFAVETLICFNLFLNSQEKHY"}}, "note": "± gives the uncertainty stated by the source."}
{"variants_of": "B1", "assay": "amyloid nucleation score relative to WT ADan (yeast Sup35 reporter selection) (log enrichment difference); higher = more amyloid nucleation", "protocol": "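Deep mutational scan of the ADan peptide fused to the Sup35 nucleation domain (SupN) in S. cerevisiae [psi-pin-], covering all single amino-acid substitutions and stop truncations (truncations = sequence up to the stop). After 24 h Cu2+ induction, cells were selected on -ADE-URA plates for 7 d at 30 °C. The nucleation score is log enrichment (output/input, deep sequencing) minus that of WT ADan, as the error-weighted mean of 3 biological replicates (DiMSum).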"}
{"variant": "EASNCFAIRHFENKFAVETLICFNLFLNSQWKHY", "note": "[E31W]", "amyloid nucleation score": "-6.44 ± 1.2"}
{"variant": "EASNCFAIRHFENKFAVETLICFNLFLNSQHKHY", "note": "[E31H]", "amyloid nucleation score": "-1.64 ± 0.22"}
{"variant": "EASNCFAIRHFENKFAVETLICFNLFLNSQIKHY", "note": "[E31I]", "amyloid nucleation score": "-2.59 ± 0.25"}
{"variant": "EASNCFAIRHFENKFAVETLICFNLFLNSQVKHY", "note": "[E31V]", "amyloid nucleation score": "-1.09 ± 0.11"}
{"variant": "EASNCFAIRHFENKFAVETLICFNLFLNSQKKHY", "note": "[E31K]", "amyloid nucleation score": "-1.84 ± 0.2"}
{"variant": "EASNCFAIRHFENKFAVETLICFNLFLNSYEKHY", "note": "[Q30Y]", "amyloid nucleation score": "-0.751 ± 0.14"}
{"variant": "EASNCFAIRHFENKFAVETLICFNLFLNSMEKHY", "note": "[Q30M]", "amyloid nucleation score": "-0.23 ± 0.12"}
{"variant": "EASNCFAIRHFENKFAVETLICFNLFLNSLEKHY", "note": "[Q30L]", "amyloid nucleation score": "-0.134 ± 0.074"}
{"variant": "EASNCFAIRHFENKFAVETLICFNLFLNSVEKHY", "note": "[Q30V]", "amyloid nucleation score": "-0.127 ± 0.076"}
{"variant": "EASNCFAIRHFENKFAVETLICFNLFLNSWEKHY", "note": "[Q30W]", "amyloid nucleation score": "-0.8 ± 0.12"}
{"variant": "EASNCFAIRHFENKFAVETLICFNLFLNSFEKHY", "note": "[Q30F]", "amyloid nucleation score": "-0.531 ± 0.12"}
{"variant": "EASNCFAIRHFENKFAVETLICFNLFLNSREKHY", "note": "[Q30R]", "amyloid nucleation score": "-0.927 ± 0.079"}
{"variant": "EASNCFAIRHFENKFAVETLICFNLFLNSIEKHY", "note": "[Q30I]", "amyloid nucleation score": "-0.931 ± 0.14"}
{"variant": "EASNCFAIRHFENKFAVETLICFNLFLNSPEKHY", "note": "[Q30P]", "amyloid nucleation score": "-0.153 ± 0.12"}
{"variant": "EASNCFAIRHFENKFAVETLICFNLFLNSDEKHY", "note": "[Q30D]", "amyloid nucleation score": "0.207 ± 0.13"}
{"variant": "EASNCFAIRHFENKFAVETLICFNLFLNSHEKHY", "note": "[Q30H]", "amyloid nucleation score": "-0.33 ± 0.15"}
{"variant": "EASNCFAIRHFENKFAVETLICFNLFLNSGEKHY", "note": "[Q30G]", "amyloid nucleation score": "-0.112 ± 0.071"}
{"variant": "EASNCFAIRHFENKFAVETLICFNLFLNSTEKHY", "note": "[Q30T]", "amyloid nucleation score": "-0.212 ± 0.11"}
{"variant": "EASNCFAIRHFENKFAVETLICFNLFLNSCEKHY", "note": "[Q30C]", "amyloid nucleation score": "-0.317 ± 0.12"}
{"variant": "EASNCFAIRHFENKFAVETLICFNLFLNSSEKHY", "note": "[Q30S]", "amyloid nucleation score": "-0.0951 ± 0.078"}
{"variant": "EASNCFAIRHFENKFAVETLICFNLFLNSKEKHY", "note": "[Q30K]", "amyloid nucleation score": "-1.41 ± 0.17"}
{"variant": "EASNCFAIRHFENKFAVETLICFNLFLNSEEKHY", "note": "[Q30E]", "amyloid nucleation score": "0.219 ± 0.11"}
{"variant": "EASNCFAIRHFENKFAVETLICFNLFLNSNEKHY", "note": "[Q30N]", "amyloid nucleation score": "-0.383 ± 0.14"}
{"variant": "EASNCFAIRHFENKFAVETLICFNLFLNSAEKHY", "note": "[Q30A]", "amyloid nucleation score": "-0.161 ± 0.099"}
{"variant": "EASNCFAIRHFENKFAVETLICFNLYLNSQEKHY", "note": "[F26Y]", "amyloid nucleation score": "-0.164 ± 0.13"}
{"variant": "EASNCFAIRHFENKFAVETLICFNLPLNSQEKHY", "note": "[F26P]", "amyloid nucleation score": "-3.34 ± 0.54"}
{"variant": "EASNCFAIRHFENKFAVETLICFNLKLNSQEKHY", "note": "[F26K]", "amyloid nucleation score": "-3.31 ± 0.46"}
{"variant": "EASNCFAIRHFENKFAVETLICFNLSLNSQEKHY", "note": "[F26S]", "amyloid nucleation score": "-0.00989 ± 0.098"}
{"variant": "EASNCFAIRHFENKFAVETLICFNLNLNSQEKHY", "note": "[F26N]", "amyloid nucleation score": "0.113 ± 0.17"}
{"variant": "EASNCFAIRHFENKFAVETLICFNLLLNSQEKHY", "note": "[F26L]", "amyloid nucleation score": "-0.42 ± 0.1"}
{"variant": "EASNCFAIRHFENKFAVETLICFNLQLNSQEKHY", "note": "[F26Q]", "amyloid nucleation score": "-0.394 ± 0.21"}
{"variant": "EASNCFAIRHFENKFAVETLICFNLVLNSQEKHY", "note": "[F26V]", "amyloid nucleation score": "-0.146 ± 0.095"}
{"variant": "EASNCFAIRHFENKFAVETLICFNLRLNSQEKHY", "note": "[F26R]", "amyloid nucleation score": "-2.51 ± 0.17"}
{"variant": "EASNCFAIRHFENKFAVETLICFNLTLNSQEKHY", "note": "[F26T]", "amyloid nucleation score": "-0.0939 ± 0.16"}
{"variant": "EASNCFAIRHFENKFAVETLICFNLMLNSQEKHY", "note": "[F26M]", "amyloid nucleation score": "-0.622 ± 0.18"}
{"variant": "EASNCFAIRHFENKFAVETLICFNLWLNSQEKHY", "note": "[F26W]", "amyloid nucleation score": "0.102 ± 0.14"}
{"variant": "EASNCFAIRHFENKFAVETLICFNLFLNSQEKNY", "note": "[H33N]", "amyloid nucleation score": "0.15 ± 0.16"}
{"variant": "EASNCFAIRHFENKFAVETLICFNLFLNSQEKGY", "note": "[H33G]", "amyloid nucleation score": "-0.479 ± 0.096"}
{"variant": "EASNCFAIRHFENKFAVETLICFNLFLNSQEKQY", "note": "[H33Q]", "amyloid nucleation score": "-0.171 ± 0.18"}
{"variant": "EASNCFAIRHFENKFAVETLICFNLFLNSQEKTY", "note": "[H33T]", "amyloid nucleation score": "-0.406 ± 0.17"}
{"variant": "EASNCFAIRHFENKFAVETLICFNLFLNSQEKSY", "note": "[H33S]", "amyloid nucleation score": "-0.164 ± 0.1"}
{"variant": "EASNCFAIRHFENKFAVETLICFNLFLNSQEKEY", "note": "[H33E]", "amyloid nucleation score": "0.174 ± 0.16"}
{"variant": "EASNCFAIRHFENKFAVETLICFNLFLNSQEKKY", "note": "[H33K]", "amyloid nucleation score": "-0.0712 ± 0.19"}
{"variant": "EASNCFAIRHFENKFAVETLICFNLFLNSQEKPY", "note": "[H33P]", "amyloid nucleation score": "-0.211 ± 0.18"}
{"variant": "EASNCFAIRHFENKFAVETLICFNLFLNSQEKLY", "note": "[H33L]", "amyloid nucleation score": "-0.693 ± 0.12"}
{"variant": "EASNCFAIRHFENKFAVETLICFNLFLNSQEKDY", "note": "[H33D]", "amyloid nucleation score": "0.264 ± 0.15"}
{"variant": "EASNCFAIRHFENKFAVETLICFNLFLNSQEKCY", "note": "[H33C]", "amyloid nucleation score": "-1.33 ± 0.19"}
{"variant": "EASNCFAIRHFENKFAVETLICFNLFLNSQEKMY", "note": "[H33M]", "amyloid nucleation score": "-0.289 ± 0.17"}
{"variant": "EASNCFAIRHFENKFAVETLICFNLFLNSQEKAY", "note": "[H33A]", "amyloid nucleation score": "-0.505 ± 0.13"}
{"variant": "EASNCFAIRHFENKFAVETLICFNLFLNSQEKFY", "note": "[H33F]", "amyloid nucleation score": "-0.205 ± 0.18"}
{"variant": "EASNCFAIRHFENKFAVETLICFNLFLNSQEKIY", "note": "[H33I]", "amyloid nucleation score": "-1.01 ± 0.19"}
{"variant": "EASNCFAIRHFENKFAVETLICFNLFLNSQEKVY", "note": "[H33V]", "amyloid nucleation score": "-0.668 ± 0.11"}
{"variant": "EASNCFAIRHFENKFAVETLICFNLFLNSQEKRY", "note": "[H33R]", "amyloid nucleation score": "-0.172 ± 0.093"}
{"variant": "EASNCFAIRHFENKFAVETLICFNLFLRSQEKHY", "note": "[N28R]", "amyloid nucleation score": "-2.75 ± 0.18"}
{"variant": "EASNCFAIRHFENKFAVETLICFNLFLQSQEKHY", "note": "[N28Q]", "amyloid nucleation score": "-0.0342 ± 0.22"}
{"variant": "EASNCFAIRHFENKFAVETLICFNLFLGSQEKHY", "note": "[N28G]", "amyloid nucleation score": "0.0833 ± 0.098"}
{"variant": "EASNCFAIRHFENKFAVETLICFNLFLMSQEKHY", "note": "[N28M]", "amyloid nucleation score": "-0.403 ± 0.17"}
{"variant": "EASNCFAIRHFENKFAVETLICFNLFLDSQEKHY", "note": "[N28D]", "amyloid nucleation score": "-0.0589 ± 0.17"}
{"variant": "EASNCFAIRHFENKFAVETLICFNLFLPSQEKHY", "note": "[N28P]", "amyloid nucleation score": "0.0596 ± 0.18"}
{"variant": "EASNCFAIRHFENKFAVETLICFNLFLWSQEKHY", "note": "[N28W]", "amyloid nucleation score": "-1.06 ± 0.16"}
{"variant": "EASNCFAIRHFENKFAVETLICFNLFLISQEKHY", "note": "[N28I]", "amyloid nucleation score": "-0.963 ± 0.19"}
{"variant": "EASNCFAIRHFENKFAVETLICFNLFLESQEKHY", "note": "[N28E]", "amyloid nucleation score": "-0.442 ± 0.17"}
{"variant": "EASNCFAIRHFENKFAVETLICFNLFLKSQEKHY", "note": "[N28K]", "amyloid nucleation score": "-2.63 ± 0.29"}
{"variant": "EASNCFAIRHFENKFAVETLICFNLFLLSQEKHY", "note": "[N28L]", "amyloid nucleation score": "-0.936 ± 0.11"}
{"variant": "EASNCFAIRHFENKFAVETLICFNLFLTSQEKHY", "note": "[N28T]", "amyloid nucleation score": "-0.313 ± 0.17"}
{"variant": "EASNCFAIRHFENKFAVETLICFNLFLYSQEKHY", "note": "[N28Y]", "amyloid nucleation score": "-1.12 ± 0.17"}
{"variant": "EASNCFAIRHFENKFAVETLICFNLFLVSQEKHY", "note": "[N28V]", "amyloid nucleation score": "-1.04 ± 0.12"}
{"variant": "EASNCFAIRHFENKFAVETLICFNLFLSSQEKHY", "note": "[N28S]", "amyloid nucleation score": "-0.365 ± 0.11"}
{"variant": "EASNCFAIRHFENKFAVETLICFNLFLASQEKHY", "note": "[N28A]", "amyloid nucleation score": "0.139 ± 0.13"}
{"variant": "EASNCFAIRHFENKFAVETLICFNLFLFSQEKHY", "note": "[N28F]", "amyloid nucleation score": "-0.101 ± 0.16"}
{"variant": "EASNCFAIRHFENKFAVETLICFNLFLCSQEKHY", "note": "[N28C]", "amyloid nucleation score": "0.468 ± 0.14"}
{"variant": "EASNCFAIRHFENKFAVETLICFNLFLHSQEKHY", "note": "[N28H]", "amyloid nucleation score": "-1.83 ± 0.29"}
